# Laboratory results as given in publication doi:10.1101/2025.10.16.682859 (bioRxiv, 2025).
# Target: the molecule itself
# Test: cryo-EM structure
protein,measurement,value
human asparagine synthetase (ASNS) (enzyme) CGIWALFGSDDCLSVQCLSAMKIAHRGPDAFRFENVNGYTNCCFGFHRLAVVDPLFGMQPIRVKKYPYLWLCYNGEIYNHKKMQQHFEFEYQTKVDGEIILHLYDKGGIEQTICMLDGVFAFVLLDTANKKVFLGRDTYGVRPLFKAMTEDGFLAVCSEAKGLVTLKHSATPFLKVEPFLPGHYEVLDLKPNGKVASVEMVKYHHCRDVPLHALYDNVEKLFPGFEIETVKNNLRILFNNAVKKRLMTDRRIGCLLSGGLDSSLVAATLLKQLKEAQVQYPLQTFAIGMEDSPDLLAARKVADHIGSEHYEVLFNSEEGIQALDEVIFSLETYDITTVRASVGMYLISKYIRKNTDSVVIFSGEGSDELTQGYIYFHKAPSPEKAEEESERLLRELYLFDVLRADRTTAAHGLELRVPFLDHRFSSYYLSLPPEMRIPKNGIEKHLLRETFEDSNLIPKEILWRPKEAFSDGITSVKNSWFKILQEYVEHQVDDAMMANAAQKFPFNTPKTKEGYYYRQVFERHYPGRADWLSHYWMPKWINATDPSARTLTHYKSAVKA,stoichiometry N,2
